This data set deals with K4 kissing-loop RNA reporter. Nature of the data set: apparent KD of K4 kissing-loop reporter; higher = weaker reporter binding. Particulars: Eterna round: R107. How it is done: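 RNA-MaP round R107: designed RNA switches with theophylline, tryptophan, arginine or FMN aptamers are transcribed on-chip within common flanks. They are titrated with a labelled K4 kissing-loop RNA reporter in RNA-MaP buffer (100 mM Tris pH 7.5, 80 mM KCl, 4 mM MgCl2), without ligand or with the indicated ligand. Median apparent KD per design.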

Where [1] appears, read: input ligand: theophylline 20 uM.
The mark [2] stands for this setting: input ligand: tryptophan 2.4 mM.
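Also: bound reporter read as fluorescence of individual clusters on recovered sequencing chips by microscopy, with normalized cluster intensities fitted with a binding model.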

On to “CGCGCCCAGCCGGAUACCAGUGACCCGCUGGGAACCGCGGGCCCAGAGUGAUGUUCGGGACACCCUUGGCAGCCGCCUGGGCGGG [#2 Same State - Theophylline B Attempt #16 (HarryS)]”, for which the “apparent KD of K4 kissing-loop reporter” value came out at 1350 nM (input ligand: FMN 200 uM); 606 nM (input ligand: arginine 13.2 mM); 597 nM (input ligand: none); 460 nM under setting [1]; 608 nM under setting [2].
For “CGGAGUGAUGUUCCUUUUAUUAAUUAUUUACGAGGACCGGUACGGCCGCCACUCGAUUUAGCUUUUAUUUAAUGCUUGGAUGUUU [JR_SSTryptoA_Sub004]”, in that order: 130 nM, 212 nM, 140 nM, 208 nM and 66.3 nM.
“CGGCGGAGUGAUGUUCUGCUCGCUCCGGAUACCAGCUUCGCCAGAGGCCCUUGGCAGCCGGGCGGCCCAGUGAUGUUGGGUUGCG [Same State Theophylline A GF 17]”: the “apparent KD of K4 kissing-loop reporter” value reads like this: (input ligand: FMN 200 uM) 297 nM; (input ligand: arginine 13.2 mM) 243 nM; (input ligand: none) 277 nM; under setting [1], 246 nM; under setting [2], 237 nM.
For “CGUAGCAGAUGAAGGAGCGGCUACCUGUAUCAGGCAACUGCCUGAGUGAUGUUCAGGUAUAGCCAGGUAGGUCGCAUCUGCUACG [Arg B Ex t9b]”, in that order: 240 nM, 206 nM, 214 nM, 211 nM and 212 nM.
On to “CGUUCCUCUGUCGAUACCAGCUUCAGUUGGCGGCCAGUGAUGUUGGUAUUGCCGAUGCCAAGCCCUUGGCAGCGAUAUGAGACCC [Aredi]”, for which the “apparent KD of K4 kissing-loop reporter” value (input ligand: FMN 200 uM) stood at 572 nM; the “apparent KD of K4 kissing-loop reporter” value (input ligand: arginine 13.2 mM) came out at 403 nM; the “apparent KD of K4 kissing-loop reporter” value (input ligand: none) was 597 nM; the “apparent KD of K4 kissing-loop reporter” value under setting [1] is 265 nM; the “apparent KD of K4 kissing-loop reporter” value under setting [2] worked out at 439 nM.
“CGUUUAUAGCAGGAUACCAGUACCCAUAAAGUACGUUAAUAGUAGAGUGAUGUUCUAAAGUACCCUUGGCAGCUUCCCGUGAGUG [ExTheophylB.T]”: the “apparent KD of K4 kissing-loop reporter” value runs as follows: (input ligand: FMN 200 uM) 88.9 nM; (input ligand: arginine 13.2 mM) 129 nM; (input ligand: none) 103 nM; under setting [1], 134 nM; under setting [2], 67.8 nM.
On to “CGUUUAUAGCAGGAUACCAGUACCCAUUAUGUACGUUUAUAGUAGAGUGAUGUUCUAAAGUACCCUUGGCAGCUUCCCGUGACCC [ExTheophylB.Z]”, for which the “apparent KD of K4 kissing-loop reporter” value was 113 nM (input ligand: FMN 200 uM); 171 nM (input ligand: arginine 13.2 mM); 131 nM (input ligand: none); 179 nM under setting [1]; 85.4 nM under setting [2].
As for “CGUUUAUAGCAGGAUACCAGUACGGAUAAAGUACGUUAAUAGUAGAGUGAUGUUCUAAAGUACCCUUGGCAGCUUAGAGUGAGUG [ExTheophylB.O]”, the “apparent KD of K4 kissing-loop reporter” value runs as follows: (input ligand: FMN 200 uM) 107 nM; (input ligand: arginine 13.2 mM) 149 nM; (input ligand: none) 112 nM; under setting [1], 144 nM; under setting [2], 78.1 nM.
Take “CGUUUAUAGCAGGAUACCAGUACGGAUAAGGUACGUUAAUAGUAGAGUGAUGUUCUAAAGUACCCUUGGCAGCUUAGAGUGAGUG [#20 K4 Theophylline B Exclusion]”: the “apparent KD of K4 kissing-loop reporter” value is 90.3 nM (input ligand: FMN 200 uM); 147 nM (input ligand: arginine 13.2 mM); 142 nM (input ligand: none); 126 nM under setting [1]; 92.2 nM under setting [2].
For “CGUUUAUAGGAGGAUACCAGUACGGAUAAAGUACGUUAAUAGUAGAGUGAUGUUCUAAAGUACCCUUGGCAGCUUAGAGUGAGUG [ExTheophylB.N]”, in that order: 100 nM, 104 nM, 106 nM, 121 nM and 73.6 nM.
For “CUCGUGGGUUUGAGAGGGCUUGUGGGAAGUAAGGAUAUUUAGGGAGGAAGAAGGUACUAUAGAAUAUAGUGAUGUUAUAUAUGGG [SSFMNA.Y]”, in that order: 301 nM, 224 nM, 289 nM, 406 nM and 244 nM.
For “CUGAGCCUGACGAAAGUCAGGCUCUGCGAGCGAGGACCGGUACGGCCGCCACUCGGUGCAGUGAUGUUGCAUGGCCGCAAGGCCG [#2 Exclusion - Tryptophan A Attempt #18 (HarryS)]”, the “apparent KD of K4 kissing-loop reporter” value runs as follows: (input ligand: FMN 200 uM) 263 nM; (input ligand: arginine 13.2 mM) 289 nM; (input ligand: none) 207 nM; under setting [1], 256 nM; under setting [2], 262 nM.
“CUGCAAAAGUCGGCCGCCACUCCGGGCCCUAUAAAUGGGCGCAGUGAUGUUGCGGCUAGGCCUCUGAGGACCGGGACUUUGUAAC [Aratan]”: the “apparent KD of K4 kissing-loop reporter” value came out at 190 nM (input ligand: FMN 200 uM); 64.7 nM (input ligand: arginine 13.2 mM); 87 nM (input ligand: none); 131 nM under setting [1]; 218 nM under setting [2].
As to “CUGUAUCAUAUUGAUACCAGAGAAAGAACCAGUGAUGUUGGAAAAGACGAAUAAAUUAUACUCCCUUGGCAGCGGAAAUGAACAG [Totally accidental]”, the “apparent KD of K4 kissing-loop reporter” value reads like this: (input ligand: FMN 200 uM) 73 nM; (input ligand: arginine 13.2 mM) 85.6 nM; (input ligand: none) 75.8 nM; under setting [1], 105 nM; under setting [2], 59.9 nM.
“CUUGGUCUACGAAGGAGCGCCGUGCAGUGAUGUUGCAGUCAGAUCGAGUGAUGUUUCGGGCGGCAGGUAGGUCGCGUGGCCCUUU [Excusion Arginine B GF 26]”: the “apparent KD of K4 kissing-loop reporter” value runs as follows: (input ligand: FMN 200 uM) 633 nM; (input ligand: arginine 13.2 mM) 455 nM; (input ligand: none) 613 nM; under setting [1], 587 nM; under setting [2], 579 nM.
Consider “GACAGUCGGUGUUAAUGACAGUUACGCGAUACCAGCGAAACAGUACGCCCUUGGCAGCGCAGUGAUGUUGCGCGCCUAGUGUGGU [Esbiceve]”, for which the “apparent KD of K4 kissing-loop reporter” value (input ligand: FMN 200 uM) was 99.5 nM; the “apparent KD of K4 kissing-loop reporter” value (input ligand: arginine 13.2 mM) stood at 94.8 nM; the “apparent KD of K4 kissing-loop reporter” value (input ligand: none) was 101 nM; the “apparent KD of K4 kissing-loop reporter” value under setting [1] was found to be 92.5 nM; the “apparent KD of K4 kissing-loop reporter” value under setting [2] came to 97.2 nM.
In the case of “GACCUAAGCUAUGAUACCAGUCUGGCACGAAGAAGUGAUGUUUCCCAGCGUUUGUCACUUGACCCUUGGCAGCAUGCGAUCAGCU [theeternabot_sameState_KL_Theo_B_29]”, the “apparent KD of K4 kissing-loop reporter” value was determined as 197 nM (input ligand: FMN 200 uM); 106 nM (input ligand: arginine 13.2 mM); 151 nM (input ligand: none); 165 nM under setting [1]; 128 nM under setting [2].

The values are drawn from the supplement of paper PMC9170038.
